This is an account of results in IntAct's records for PubMed 10704439.

The chains are these.
B1: Spindle assembly checkpoint component MAD3 (Saccharomyces cerevisiae), P47074 (parent)
chain: MKAYAKKRISYMPSSPSQNVINFEEIETQKENILPLKEGRSAAALSKAIHQPLVEINQVKSSFEQRLIDELPALSDPITLYLEYIKWLNNAYPQGGNSKQSGMLTLLERCLSHLKDLERYRNDVRFLKIWFWYIELFTRNSFMESRDIFMYMLRNGIGSELASFYEEFTNLLIQKEKFQYAVKILQLGIKNKARPNKVLEDRLNHLLRELGENNIQLGNEISMDSLESTVLGKTRSEFVNRLELANQNGTSSDVNLTKNNVFVDGEESDVELFETPNRGVYRDGWENFDLKAERNKENNLRISLLEANTNLGELKQHEMLSQKKRPYDEKLPIFRDSIGRSDPVYQMINTKDQKPEKIDCNFKLIYCEDEESKGGRLEFSLEEVLAISRNVYKRVRTNRKHPREANLGQEESANQKEAEAQSKRPKISRKALVSKSLTPSNQGRMFSGEEYINCPMTPKGRSTETSDIISAVKPRQLTPILEMRESNSFSQSKNSEIISDDDKSSSSFISYPPQR
partner: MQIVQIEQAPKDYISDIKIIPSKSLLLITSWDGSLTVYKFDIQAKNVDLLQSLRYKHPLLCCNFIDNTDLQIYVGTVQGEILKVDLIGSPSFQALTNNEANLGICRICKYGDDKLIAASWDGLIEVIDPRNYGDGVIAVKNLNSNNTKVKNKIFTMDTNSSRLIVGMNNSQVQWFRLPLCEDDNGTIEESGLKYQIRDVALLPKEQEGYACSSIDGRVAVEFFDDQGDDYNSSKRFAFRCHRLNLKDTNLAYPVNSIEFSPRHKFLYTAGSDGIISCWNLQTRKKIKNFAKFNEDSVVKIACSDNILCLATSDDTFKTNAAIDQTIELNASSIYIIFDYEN

Variants of B1 are the subject of this assay. As to conditions: with bub3_yeast BUB3, P26449.
For E382K, the “effect of a mutation on the interaction” value is reported as “decreasing interaction”.
